Patent publication US20200362026A1 (INSTITUTE FOR RESEARCH IN BIOMEDICINE, published 2020)

T1: FcγRIIb (UniProt P31994 43-310, limits assumed)
T1 construct: whole, on cells; also called FcgRIIb; Fcγ receptor IIb
T1 sequence (looked up): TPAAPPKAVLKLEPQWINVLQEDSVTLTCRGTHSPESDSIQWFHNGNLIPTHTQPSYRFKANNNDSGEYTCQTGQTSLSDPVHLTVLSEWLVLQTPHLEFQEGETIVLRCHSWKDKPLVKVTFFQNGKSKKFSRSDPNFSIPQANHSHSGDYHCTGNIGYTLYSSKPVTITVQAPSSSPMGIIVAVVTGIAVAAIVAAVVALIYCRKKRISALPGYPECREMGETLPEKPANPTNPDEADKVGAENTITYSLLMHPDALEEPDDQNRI

T2: FcγRIIa (UniProt P12318 34-317, limits assumed)
T2 construct: whole, on cells; also called FcgRIIa; Fcγ receptor IIa
T2 sequence (looked up): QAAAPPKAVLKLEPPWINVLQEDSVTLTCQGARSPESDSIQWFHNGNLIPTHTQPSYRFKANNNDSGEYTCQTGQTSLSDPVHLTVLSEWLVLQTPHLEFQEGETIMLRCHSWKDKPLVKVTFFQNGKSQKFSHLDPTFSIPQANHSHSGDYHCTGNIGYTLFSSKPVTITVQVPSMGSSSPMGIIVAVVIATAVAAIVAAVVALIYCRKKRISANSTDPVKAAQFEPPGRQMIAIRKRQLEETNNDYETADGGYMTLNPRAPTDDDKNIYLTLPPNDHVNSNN

B1: Ts1GC2a trispecific antibody (antibody, human IgG1, kappa)
heavy: not shown
light: EIVLTQSPGTLSLSPGETAILSCRASQSVSSSLLAWYQQKPGQAPRLLIYGASNRATGIRGRFSGSGSGTDFTLTISRLEPEDFVLYYCQHYGSRVTFGQGTKLEIKRTVAAPSVFIFPPSDEQLKSGTASVVCLLNNFYPREAKVQWKVDNALQSGNSQESVTEQDSKDSTYSLSSTLTLSKADYEKHKVYACEVTHQGLSSPVTKSFNRGEC
notes: Trispecific hexavalent IgG1, construct type Ts1; specificities GCE536 + GCA7 + GCB59
B2: Bs1GC2a bispecific antibody (bispecific antibody, human IgG1, kappa)
heavy: not shown
light: B1 light
notes: Bispecific tetravalent IgG1, construct type Bs1; specificities GCE536 + GCB59
B3: Ts3GC2d trispecific antibody (antibody, human IgG1, kappa)
heavy: not shown
light: B1 light
notes: Trispecific hexavalent IgG1, construct type Ts3; specificities GCE536 + GCA7 + GCB59; also called TsGC2d; TsgC2d
B4: Bs3GC1a bispecific antibody (bispecific antibody, human IgG1, kappa)
heavy: not shown
light: B1 light
notes: Bispecific tetravalent IgG1, construct type Bs3; specificities GCE536 + GCA7
B5: Bs3GC4 bispecific antibody (bispecific antibody, human IgG1, kappa)
heavy: not shown
light: DIQMTQSPSTLSTSVGDRVTITCRASQNILNWLAWYQQKPGNAPNLLIYKASDLQSGVPSRFSGSGSGTEFTLTISSLQPDDFATYYCQHYNSYPLTFGGGTKVEIKRTVAAPSVFIFPPSDEQLKSGTASVVCLLNNFYPREAKVQWKVDNALQSGNSQESVTEQDSKDSTYSLSSTLTLSKADYEKHKVYACEVTHQGLSSPVTKSFNRGEC
notes: Bispecific tetravalent IgG1, construct type Bs3; specificities GCA21 + GCE536; also called BsGC4
B6: Bs3GC5 bispecific antibody (bispecific antibody, human IgG1, kappa)
heavy: not shown
light: B5 light
notes: Bispecific tetravalent IgG1, construct type Bs3; specificities GCA21 + GCA7
B7: Bs3GC2b bispecific antibody (bispecific antibody, human IgG1, lambda)
heavy: not shown
light: SYVLTQPPSVSVAPGQTASLTCGGTNIGSKSVHWYQQKAGQAPVLVVYADNDRPSGVPERFSGSNSGNTATLTISRVEAEDESDYFCQVWDGNTDHVVFGGGTKLTVLGQPKAAPSVTLFPPSSEELQANKATLVCLISDFYPGAVTVAWKADSSPVKAGVETTTPSKQSNNKYAASSYLSLTPEQWKSHRSYSCQVTHEGSTVEKTVAPTECS
notes: Bispecific tetravalent IgG1, construct type Bs3; specificities GCE536 + GCB59
B8: Bs3GC3b bispecific antibody (bispecific antibody, human IgG1, lambda)
heavy: not shown
light: B7 light
notes: Bispecific tetravalent IgG1, construct type Bs3; specificities GCA7 + GCB59

Target: T1, FcγRIIb
Test: flow cytometry, TZM-bl cells expressing FcγRIIb, immune complex with low GM-CSF
Method: (§1) Expression of specific FcγRs was assessed by staining TZM-b1 cells with FITC-conjugated anti-CD64 (anti-FcγRI), anti-CD32 (anti-FcγRIIa and anti-FcγRIIb) and anti-CD16 (anti-FcγRIIIa) antibodies (all from BD Pharmingen). Untrasfected and transfected TZM-b1 cells were washed with staining buffer (PBS with 10% Fetal Bovine Serum and 2 mM EDTA) and seeded in 96-well-plates at a density of 50,000 cells per well. […] The LALA versions of all antibodies and a mAb with a different specificity were included as controls. Samples were incubated at 37° C. for 30 min to allow the formation of immune complexes and then cooled down to 4° C. before adding them to TZM-b1 cells for 30 min. Cells were washed twice and stained with anti-human IgG Fcγ fragment specific F(ab′)2 fragment (Jackson ImmunoResearch). Samples were analyzed on BD FACSCanto (BD Biosciences) and median intensity fluorescence was analyzed and compared between samples.
(§2) To address the engagement of Fcγ receptors, immune complexes formed between GM-CSF and multispecific antibodies were tested for their capacity to bind to TZM-b1 cells expressing FcγRIIa and FcγRIIb receptors. Multispecific antibodies were mixed with 0.05 μg/ml of GM-CSF, or staining buffer. Samples were incubated at 37° C. for 30 min to allow the formation of immune complexes and then cooled down to 4° C. before adding them to TZM-b1 cells for 30 minutes. Cells were washed twice and stained with anti-human IgG Fcγ fragment specific F(ab′)2 fragment. Samples were analyzed on BD FACSCanto (BD Biosciences) and median intensity fluorescence was analyzed and compared between samples.

Binder	MFI
B1	136000 MFI
B2	398000 MFI
B3	344000 MFI
B4	175000 MFI
B5	137000 MFI
B6	393000 MFI
B7	181000 MFI
B8	57800 MFI

Target: T1, FcγRIIb
Test: flow cytometry, TZM-bl cells expressing FcγRIIb, mAb alone (w/o GM-CSF)
Method: as §1, §2

Binder	MFI
B1	67200 MFI
B2	11800 MFI
B3	29000 MFI
B4	20600 MFI
B5	123000 MFI
B6	177000 MFI
B7	96700 MFI
B8	2630 MFI

Target: T1, FcγRIIb
Test: flow cytometry, TZM-bl FcγRIIb cells; average ratio of binding in presence and in absence of GM-CSF
Method: as §1, §2

Binder	Average RATIO FcgRIIb
B1	3.96 ratio
B2	77.8 ratio
B3	17.2 ratio
B4	16.6 ratio
B5	0.81 ratio
B6	5.58 ratio
B7	7.67 ratio
B8	93.3 ratio

Target: T2, FcγRIIa
Test: flow cytometry, TZM-bl cells expressing FcγRIIa, mAb alone (w/o GM-CSF)
Method: as §1, §2

Binder	MFI
B1	2850 MFI
B2	662 MFI
B3	1310 MFI
B4	687 MFI
B5	6730 MFI
B6	1100 MFI
B7	6910 MFI
B8	650 MFI

Target: T2, FcγRIIa
Test: flow cytometry, TZM-bl cells expressing FcγRIIa, immune complex with low GM-CSF
Method: as §1, §2

Binder	MFI
B1	4130 MFI
B2	9140 MFI
B3	7900 MFI
B4	1270 MFI
B5	24500 MFI
B6	30200 MFI
B7	7130 MFI
B8	8290 MFI

Target: T2, FcγRIIa
Test: flow cytometry, TZM-bl cells expressing FcγRIIa, immune complex with high GM-CSF
Method: as §2

Binder	MFI
B1	9870 MFI
B2	566000 MFI
B3	122000 MFI
B4	65300 MFI
B5	19500 MFI
B6	468000 MFI
B7	269000 MFI
B8	55000 MFI

Target: T3, human GM-CSF (granulocyte macrophage-colony stimulating factor) (human, UniProt P04141 18-144)
T3 construct: Soluble cytokine used in ELISA, SPR, TF-1 bioassay and immune complex formation; also called recombinant GM-CSF
T3 sequence (P04141 18-144 limits assumed): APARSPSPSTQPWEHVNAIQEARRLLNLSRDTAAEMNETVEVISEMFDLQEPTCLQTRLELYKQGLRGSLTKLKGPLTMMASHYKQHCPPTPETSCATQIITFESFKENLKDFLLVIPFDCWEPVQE
Test: ELISA on GM-CSF

Binder	EC50
B1	33.5 ng/mL
B2	16.2 ng/mL
B3	29.6 ng/mL
B4	74.3 ng/mL
B5	32.3 ng/mL
B6	41.8 ng/mL
B7	48.6 ng/mL
B8	587 ng/mL

Target: T3, human GM-CSF (granulocyte …)
Test: cell-based or functional assay

Binder	IC90 less stringent conditions (50 pg/ml GM-CSF, 1,000 TF-1/well)	IC90 more stringent conditions (500 pg/ml GM-CSF, 1,000 TF-1/well)	IC90 stringent conditions (50 pg/ml GM-CSF, 10,000 TF-1/well)	IC90 very stringent conditions (500 pg/ml GM-CSF, 10,000 TF-1/well)
B1	0.265 ng/mL	3.17 ng/mL	0.281 ng/mL	2.53 ng/mL
B2	2.77 ng/mL	9.92 ng/mL	31.4 ng/mL	217 ng/mL
B3	0.536 ng/mL	0.795 ng/mL	0.413 ng/mL	0.768 ng/mL
B4	0.681 ng/mL	4.72 ng/mL	0.963 ng/mL	6.24 ng/mL
B5	9.26 ng/mL	97.5 ng/mL	90.8 ng/mL	739 ng/mL
B6	1.3 ng/mL	6.46 ng/mL	4.18 ng/mL	10.2 ng/mL
B7	0.559 ng/mL	6.21 ng/mL	1.07 ng/mL	11.2 ng/mL
B8	1.28 ng/mL	17.8 ng/mL	2.96 ng/mL	124 ng/mL

Target: T1, FcγRIIb
Test: flow cytometry, TZM-bl cells expressing FcγRIIb, immune complex with high GM-CSF
Method: as §1, §2

Binder	MFI
B1	397000 MFI
B2	1.44e+06 MFI
B3	652000 MFI
B4	510000 MFI
B5	62600 MFI
B6	1.58e+06 MFI
B7	1.3e+06 MFI
B8	433000 MFI

Target: T2, FcγRIIa
Test: flow cytometry, TZM-bl FcγRIIa cells; average ratio of binding in presence and in absence of GM-CSF
Method: as §2

Binder	Average RATIO FcgRIIa
B1	2.46 ratio
B2	435 ratio
B3	49.5 ratio
B4	48.4 ratio
B5	3.26 ratio
B6	226 ratio
B7	20 ratio
B8	48.7 ratio
